Legend:
[1] = tested on: primary mouse keratinocytes; experiment: BrDu proliferation assay of mouse keratinocytes; type: cell-based; details: increasing concentrations of sAgrin
Protocol: (a) The protein sequence of the C-terminal Agrin fragment used as bio-additive. Gel-filtration profile of purified sAgrin. The recombinant sAgrin were tested in a Coomassie stained gel and by Western blot using an Agrin antibody. (b) BrDu proliferation assay of mouse keratinocytes cells treated with increasing concentrations of sAgrin for the indicated days (n=3 experiments, Students ‘t’ test, **p=0.001 and *p=0.01, respectively). (c) HaCaT/mouse keratinocytes cells treated with increasing doses of sAgrin were subjected to scratch wound assay. Representative bright-field images are shown at indicated times post-wounding. Scale bar: 20 μm. The resulting uncovered wound area presented as mean+/−s.d. was quantified using ImageJ (n=3, Students ‘t’ test, *p<0.01). (d) Untreated or sAgrin (10 μg/ml) HaCaT cells were scratched and allowed to migrate for 4 h. […] The relative diameter of wounds presented as mean+/−s.d. was measured on indicated days and represented graphically from one experiment (n=3 mice per group, One-way ANOVA, *p<0.04, **p<0.004, respectively). […] The degree of proliferating cells were quantified using ImageJ (n=3 sections analyzed from two independent mice wounds, Students ‘t’ tests, *p=0.01). […] The quantification of individual types of collagen fibers were done using ImageJ (n=3 sections analyzed per group, Students ‘t’ test, *p=0.01 and 0.05, respectively).

HaCaT cells = experiment: Traction force microscopy and PIV of collective migration; type: cell-based, human
Protocol: Substrate preparation—Two-part silicone elastomer, DOWSIL CY52-276 (Dow Inc.), is first mixed thoroughly in a 1:1 weight ratio. The mixture is then poured into a 35 mm glass-bottom culture dish (iwaki 3930-035, Asahi Techno Glass Corporation, Japan) placed on a level surface, to a thickness of ˜500 μm. After pre-curing overnight, the silicone coated culture dish is further baked for 2 hours at 80° C. to fully cure. To maximize subsequent microsphere attachment, the silicone film is pre-treated with (3-aminopropyl) triethoxysilane (A3648, Sigma-Aldrich). To silanize, a 1 ml solution containing 96% v/v, 2% v/v APTES and 1% v/v acetic acid (A6283, Sigma Aldrich) is added to the glass-bottom culture dish, covering the whole silicone film, and left for 10 minutes to react. The silicone film is then twice rinsed with 96% v/v ethanol and followed by a quick dip in Milli-Q water to remove all the solution: removing solution from the film this way is preferred over blow-drying with nitrogen gas because the latter may introduce dust to the surface which subsequently affects the uniformity of attached microsphere distribution. Following this, the culture-dish is baked at 80° C. for another 2 hours to promote siloxane bond formation. For the physisorption of fluorescent latex microspheres on to the silicone film, 6 μl of 100 nm orange fluorescent (540/560) carboxylate-modified microspheres (F8800, ThermoFisher Scientific) is first diluted in 10 ml of Milli-Q water and sonicated for 10 minutes. The diluted microspheres are then passed through a 0.22 μm filter directly into a 15 ml falcon tube containing 500 μl of 500 mM MES buffer, pH 6.0 (M3671, Sigma Aldrich). The microspheres are then sonicated again for 10 minutes before being added to cover the APTES silanized silicone film within the culture dish previously prepared. The solution was left for 5 minutes to allow the microspheres to attach. […] The stiffness of silicone substrates used for TFM were determined by atomic force microscopy as per previously established protocols as described in the section below. […]

pMLC = experiment: Force transmission via ligand conjugated magnetic beads; type: cell-based, human
[2] = Agrin depleted cells supplemented with sAgrin

B1: sAgrin: C-terminus recombinant Agrin fragment containing 8 amino acid 'Z8' insert and LG3 domain (SEQ ID NO: 7), His-tagged, expressed in E. coli (protein)
chain: DTLAFDGRTFVEYLNAVTESELANEIPVEKALQSNHFELSLRTEATQGLVLWSGKATERADYVALAIVDGHLQLSYNLGSQPVVLRSTVPVNTNRWLRVVAHREQREGSLQVGNEAPVTGSSPLGATQLDTDGALWLGGLPELPVGPALPKAYGTGFVGCLRDVVVGRHPLHLLEDAVTKPELRPCPTP
modifications: His tag
proliferation (BrDu incorporation) [1]: supported the proliferation of primary mouse keratinocytes | traction force at migrating leading edge of MMP12 depleted keratinocytes (HaCaT cells; 10 μg/ml sAgrin 18-24 h): failed to induce sufficient traction force | collective traction stress at the leading front (HaCaT cells; [2]): significantly enhanced | coordinated velocity fields and fluidic collective migration (PIV) (HaCaT cells; [2]): significantly enhanced | pMLC recruitment in control cells upon force (bead pull-down Western) (pMLC; siControl cells): greater pMLC recruitment in control cells compared to FN, but similar to that induced by Syndecan-4 | pMLC with temporal increase of force application (pMLC; up to 60 min): enhanced pMLC mechanoperception

Reference: patent US20230257435A1, “Wound Healing Composition and Uses Thereof” (AGENCY FOR SCIENCE, TECHNOLOGY AND RESEARCH, priority 2020, published 2023)
